Measurements as given in patent publication US20170166877A1.

Experiments:
Assay in all cases: cell-based or functional assay
[1] = biological target: FKBP12v36-ΔCaspase-9 encoded by the retroviral vectors pSFG-iC9.T2A-ΔCD19 (pBP0220) and its FRBL derivatives pBP0755, pBP0756, pBP0757 (human)
[2] = biological target: Four tandem FRBL domains encoded by pBP0725 (pSH1-FRBl.FRBl′.LS.FRBl″.FRBl′″)
[3] = biological target: FKBP.FRB.ΔC9 encoded by pBP1311 (pSFG.FKBP.FRB.ΔC9.T2A-ΔCD19)
[4] = biological target: FRB.FKBP.ΔC9 encoded by pBP1310 (pSFG.FRB.FKBP.ΔC9.T2A-ΔCD19)
[5] = biological target: Four tandem FKBP12 (Fpk) domains encoded by pBP0722 (pSH1-Fpk-Fpk′.LS.Fpk″.Fpk′″.LS.HA) (Homo sapiens (Human)) (UniProt P62942)
[6] = biological target: First generation Her2-CAR fused to two tandem FRBl domains
[7] = biological target: First generation CD19-CAR fused to two tandem FRBl domains, co-expressed with inducible Caspase-9
[8] = biological target: MyD88-CD40 fused to wild-type FKBP12 and FRBL, encoded by pBP1440
[9] = biological target: Non-myristoylated inducible MyD88/CD40 with two FKBP12v36 domains, encoded by pBP0606 (pSFG-k-ΔMyr.iMC.2A-ΔCD19) (human)
Sequence of Non-myristoylated inducible MyD88/CD40 with two FKBP12v36 domains, encoded by pBP0606 (pSFG-k-ΔMyr.iMC.2A-ΔCD19) (human) (chain, as listed by the source mutant limits assumed): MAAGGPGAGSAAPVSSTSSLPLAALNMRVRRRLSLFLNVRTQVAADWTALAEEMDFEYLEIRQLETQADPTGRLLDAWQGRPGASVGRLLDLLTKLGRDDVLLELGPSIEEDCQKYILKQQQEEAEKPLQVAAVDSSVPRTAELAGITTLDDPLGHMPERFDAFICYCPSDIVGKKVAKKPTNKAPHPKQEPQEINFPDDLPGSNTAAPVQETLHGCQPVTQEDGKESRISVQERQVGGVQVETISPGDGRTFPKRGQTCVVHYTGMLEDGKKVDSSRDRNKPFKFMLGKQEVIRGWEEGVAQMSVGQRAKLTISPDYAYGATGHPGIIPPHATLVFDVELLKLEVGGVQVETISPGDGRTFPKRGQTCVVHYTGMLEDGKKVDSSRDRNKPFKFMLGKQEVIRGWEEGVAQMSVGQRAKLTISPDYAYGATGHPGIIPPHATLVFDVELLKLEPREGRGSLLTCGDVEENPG

Sequence of Four tandem FRBL domains encoded by pBP0725 (pSH1-FRBl.FRBl′.LS.FRBl″.FRBl′″) (chain, as listed by the source limits assumed): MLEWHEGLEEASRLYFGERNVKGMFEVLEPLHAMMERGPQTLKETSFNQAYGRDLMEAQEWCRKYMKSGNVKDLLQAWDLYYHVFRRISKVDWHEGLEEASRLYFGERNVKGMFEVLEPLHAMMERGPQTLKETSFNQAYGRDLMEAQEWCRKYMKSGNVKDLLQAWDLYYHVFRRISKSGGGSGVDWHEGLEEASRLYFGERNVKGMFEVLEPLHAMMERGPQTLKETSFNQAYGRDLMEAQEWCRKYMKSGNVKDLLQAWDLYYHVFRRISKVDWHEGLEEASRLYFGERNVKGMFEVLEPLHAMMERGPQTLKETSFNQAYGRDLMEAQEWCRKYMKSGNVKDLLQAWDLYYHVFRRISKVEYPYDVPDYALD
Sequence of FRB.FKBP.ΔC9 encoded by pBP1310 (pSFG.FRB.FKBP.ΔC9.T2A-ΔCD19) (chain): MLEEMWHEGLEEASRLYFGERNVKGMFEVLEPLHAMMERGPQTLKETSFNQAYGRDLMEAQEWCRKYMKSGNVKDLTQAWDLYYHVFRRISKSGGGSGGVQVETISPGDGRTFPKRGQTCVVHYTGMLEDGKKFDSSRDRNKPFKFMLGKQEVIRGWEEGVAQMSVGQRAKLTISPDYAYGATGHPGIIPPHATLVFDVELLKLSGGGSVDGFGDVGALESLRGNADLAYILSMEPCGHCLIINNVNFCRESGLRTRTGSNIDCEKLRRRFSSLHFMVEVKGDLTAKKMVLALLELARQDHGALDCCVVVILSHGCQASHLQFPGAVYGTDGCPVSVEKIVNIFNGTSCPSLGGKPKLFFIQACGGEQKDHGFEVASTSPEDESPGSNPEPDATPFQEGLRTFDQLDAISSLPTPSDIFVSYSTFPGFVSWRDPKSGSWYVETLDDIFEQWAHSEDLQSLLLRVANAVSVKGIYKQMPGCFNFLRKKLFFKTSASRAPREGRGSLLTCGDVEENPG
Sequence of MyD88-CD40 fused to wild-type FKBP12 and FRBL, encoded by pBP1440 (chain): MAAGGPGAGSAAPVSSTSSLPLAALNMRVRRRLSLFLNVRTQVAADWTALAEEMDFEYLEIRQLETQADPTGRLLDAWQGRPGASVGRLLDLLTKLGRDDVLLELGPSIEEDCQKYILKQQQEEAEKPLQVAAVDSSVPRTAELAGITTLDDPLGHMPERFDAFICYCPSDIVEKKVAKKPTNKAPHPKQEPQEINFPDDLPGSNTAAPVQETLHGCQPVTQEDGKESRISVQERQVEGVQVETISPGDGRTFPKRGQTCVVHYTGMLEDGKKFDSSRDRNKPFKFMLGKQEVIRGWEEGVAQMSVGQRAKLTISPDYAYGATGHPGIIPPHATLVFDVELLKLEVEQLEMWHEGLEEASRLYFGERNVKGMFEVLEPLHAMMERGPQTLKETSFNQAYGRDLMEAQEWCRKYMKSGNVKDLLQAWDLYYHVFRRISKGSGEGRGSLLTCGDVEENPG
Sequence of FKBP.FRB.ΔC9 encoded by pBP1311 (pSFG.FKBP.FRB.ΔC9.T2A-ΔCD19) (chain): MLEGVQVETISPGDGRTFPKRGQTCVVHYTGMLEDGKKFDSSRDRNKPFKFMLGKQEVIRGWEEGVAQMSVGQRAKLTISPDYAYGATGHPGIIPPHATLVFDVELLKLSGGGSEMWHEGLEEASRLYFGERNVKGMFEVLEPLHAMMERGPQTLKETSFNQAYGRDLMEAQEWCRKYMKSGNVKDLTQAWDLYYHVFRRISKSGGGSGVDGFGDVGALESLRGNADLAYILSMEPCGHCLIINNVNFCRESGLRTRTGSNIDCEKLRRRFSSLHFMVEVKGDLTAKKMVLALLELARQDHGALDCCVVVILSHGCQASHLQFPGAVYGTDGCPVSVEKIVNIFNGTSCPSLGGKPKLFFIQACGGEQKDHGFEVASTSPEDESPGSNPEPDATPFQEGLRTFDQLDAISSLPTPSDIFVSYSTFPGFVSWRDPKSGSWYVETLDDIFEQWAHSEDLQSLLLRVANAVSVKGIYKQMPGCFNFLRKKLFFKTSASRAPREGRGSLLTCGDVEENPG
Sequence of Two FRBL domains fused to ΔCaspase-9, encoded by pBP0668 (pSFG-FRBlx2.Caspase9.2A-Q.8stm.CD3zeta) (chain): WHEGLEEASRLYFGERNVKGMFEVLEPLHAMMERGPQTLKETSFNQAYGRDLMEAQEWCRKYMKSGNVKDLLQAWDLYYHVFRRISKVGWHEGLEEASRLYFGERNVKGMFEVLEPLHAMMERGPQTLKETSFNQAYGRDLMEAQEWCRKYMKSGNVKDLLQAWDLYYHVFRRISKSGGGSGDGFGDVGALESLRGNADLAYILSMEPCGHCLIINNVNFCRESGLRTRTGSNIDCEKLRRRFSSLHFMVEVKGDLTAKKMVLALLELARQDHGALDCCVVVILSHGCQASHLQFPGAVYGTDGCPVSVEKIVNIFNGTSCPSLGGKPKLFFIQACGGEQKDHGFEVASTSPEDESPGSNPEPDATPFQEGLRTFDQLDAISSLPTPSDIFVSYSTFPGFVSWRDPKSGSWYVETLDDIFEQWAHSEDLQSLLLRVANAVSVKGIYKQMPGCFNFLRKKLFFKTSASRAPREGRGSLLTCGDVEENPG

Work on “FKBP12v36-ΔCaspase-9 encoded by the retroviral vectors pSFG-iC9.T2A-ΔCD19 (pBP0220) and its FRBL derivatives pBP0755, pBP0756, pBP0757” yielded a rapamycin concentration without effect in the SRα-SEAP assay, transfected 293 cells [1] greater than 1000 nM.

“FKBP12v36-ΔCaspase-9 fusion encoded by pBP0044 (pSH1-iCaspase9wt)” was tested, and the IC50 of rapamycin or C7-isopropoxy-rapamycin for loss of constitutive SRα-SEAP reporter activity (cell death), transfected 293 cells [2] was 3 nM.

Substance “FKBP.FRB.ΔC9 encoded by pBP1311 (pSFG.FKBP.FRB.ΔC9.T2A-ΔCD19)” has a lowest rapamycin concentration with high activity (caspase 3/7 IncuCyte assay and SRα-SEAP assay), transfected 293 cells [3] of 100 pM.

“FRB.FKBP.ΔC9 encoded by pBP1310 (pSFG.FRB.FKBP.ΔC9.T2A-ΔCD19)” was tested, and the lowest rapamycin concentration with high activity (caspase 3/7 IncuCyte assay and SRα-SEAP assay), transfected 293 cells [4] was 100 pM.

Substance “FRBL-ΔCaspase-9 fusion encoded by pBP0463 (pSH1-FRBL.dCaspase9.T2A)” has an IC50 of rapamycin or C7-isopropoxy-rapamycin for loss of constitutive SRα-SEAP reporter activity (cell death), transfected 293 cells [5] of 3 nM.

Work on “Inducible Caspase-9 (FKBP-tagged Caspase-9) as used in Example 17” yielded a decrease of constitutive SRα-SEAP activity with rapamycin, transfected 293 cells (% decrease of SEAP activity) [6] of 50 and a decrease of constitutive SRα-SEAP activity with rapamycin, transfected 293 cells (% decrease of SEAP activity) [7] of 50.

For “MyD88-CD40 fused to wild-type FKBP12 and FRBL, encoded by pBP1440”, the EC50 of rapamycin or isobutyloxyrapamycin in the NF-κB SeAP reporter assay, transfected 293T cells [8] was less than 1 nM.

“Two FRBL domains fused to ΔCaspase-9, encoded by pBP0668 (pSFG-FRBlx2.Caspase9.2A-Q.8stm.CD3zeta)” gave a rapamycin level giving elimination of CD34+CD19+ doubly transduced primary T cells (flow cytometry, 24 h) [9] of 2 nM.
